From patent US20200248336A1
Where a chain is given by its changes, count along the chain named. One block for each binder: values may come before it.

Legend:
[1] = target: TAGT-8 (human); assay: BLI Octet, antigen-Fc on AHC sensor, Fab analyte
[2] = target: TAGT-8 (human); assay: BLI (Octet RED96), antigen Fc-His on AHC sensor, Fab in solution
[3] = target: TAGT-8H (human); assay: BLI (Octet), antigen-Fc captured, Fab in solution
[4] = target: TAGT-8 (human); assay: BLI, Octet RED96, antigen-Fc on AHC sensor, Fab in solution
[5] = target: TAGT-8 (human); assay: BLI (Octet), antigen-Fc on AHC sensor
[6] = target: TAGT-8H (human); assay: BLI Octet RED96, antigen-Fc on AHC sensor, Fab analyte
[7] = target: TAGT-8M (mouse); assay: BLI (Octet RED96), antigen-Fc on AHC sensor, Fab in solution
[8] = target: TAGT-8H (human); assay: as above
[9] = target: TAGT-8M (mouse); assay: BLI (Octet), antigen-Fc on AHC sensor
[10] = target: TAGT-8M (mouse); assay: BLI (Octet RED96), antigen Fc-His on AHC sensor, Fab in solution
[11] = target: TAGT-6 (human); assay: BLI (Octet RED96), antigen-Fc on AHC sensor, Fab in solution
[12] = target: TAGT-6 (human); assay: BLI (Octet), antigen-Fc on AHC sensor
[13] = target: TAGT-6 (human); assay: BLI Octet RED96, antigen-Fc on AHC sensor, Fab analyte
[14] = target: TAGT-12 (human); assay: BLI, Octet RED96, antigen-Fc on AHC sensor, Fab in solution
[15] = target: TAGT-12 (human); assay: BLI (Octet RED96), antigen Fc-His on AHC sensor, Fab in solution
[16] = target: TAGT-12 (human); assay: BLI Octet RED96, antigen-Fc on AHC sensor, Fab analyte
[17] = target: TAGT-6 (human); assay: BLI Octet, antigen-Fc on AHC sensor, Fab analyte
[18] = target: TAGT-6 (human); assay: BLI (Octet RED96), antigen Fc-His on AHC sensor, Fab in solution
[19] = target: TAGT-12 (human); assay: BLI (Octet RED96), antigen-Fc on AHC sensor, Fab in solution
[20] = target: TAGT-12 (human); assay: BLI (Octet), antigen-Fc on AHC sensor

Kd [1]: 4.27 nM | Kd [2]: 4.27 nM | Kd [3]: 4.27 nM
B1: Hit ID 4034 (Fab, V domains shown)
VH: EVQLVESGGGLVQPGGSLRLSCAASGYSISSGHYWNWIRQAPGKGLEWVSSISGYGSTTYYADSVKGRFTISRDNSKNTLYLQLNSLRAEDTAVYYCARERYYGSTDYAFDYWGQGTLVTVSS
VL: DIQLTQSPSSLSASVGDRVTITCSASSRVSHVFWYQQKPGKAPKLLIYAASTLQSGVPSRFSGSGSGTDFTLTISSLQPEDFATYFCLQGTHFPWTFGQGTKVEIKR

Kd [4]: 3.13 nM | Kd [5]: 3.13 nM | Kd [6]: 3.13 nM
B2: Hit ID 4036 (Fab, V domains shown)
VH: EVQLVESGGGLVQPGGSLRLSCAASGFSLSTSGVGVGWIRQAPGKGLEWIGEIYHSGSTYYSPSLKSRVTISRDNSKNTLYLQLNSLRAEDTAVYYCARERYGSYYFDYWGQGTLVTVSS
VL: DIQLTQSPSSLSASVGDRVTITCRASQSVDFYGKSFLDWYQQKPGKAPKLLIYDASSLESGVPSRFSGSGSGTDFTLTISSLQPEDFATYYCQQYYRIPPTFGQGTKVEIKR

Kd [7]: 3.81 nM | Kd [8]: 1.55 nM | Kd [5]: 1.55 nM | Kd [9]: 3.81 nM | Kd [2]: 1.55 nM | Kd [10]: 3.81 nM
B3: Hit ID 4027 (Fab, V domains shown)
VH: EVQLVESGGGLVQPGGSLRLSCAASGYSITSGHHWNWIRQAPGKGLEWIGWISPSSGGTKYAQKFQGRVTISRDNSKNTLYLQLNSLRAEDTAVYYCARGFDGFHYWGQGTLVTVSS
VL: DIQLTQSPSSLSASVGDRVTITCRASESVDFYGISFLPWYQQKPGKAPKLLIYDASNRATGIPSRFSGSGSGTDFTLTISSLQPEDFATYYCQQSYSWPWTFGQGTKVEIKR

Kd [11]: 3.3 nM | Kd [12]: 3.3 nM | Kd [13]: 3.3 nM
B4: Hit ID 5404 (Fab, V domains shown)
VH: EVQLVESGGGLVQPGGSLRLSCAASGYSISSGYHWAWIRQAPGKGLEWIGEIYHSGSTYYSPSLKSRVTISRDNSKNTLYLQLNSLRAEDTAVYYCARSPYYYGVFDYWGQGTLVTVSS
VL: DIQLTQSPSSLSASVGDRVTITCSASSRVGSVYWYQQKPGKAPKLLIYDASNLETGVPSRFSGSGSGTDFTLTISSLQPEDFATYYCQQYTHDPVTFGQGTKVEIKR

Kd [14]: 28.3 nM | Kd [15]: 28.3 nM | Kd [16]: 28.3 nM
B5: Hit ID 6010 (Fab, V domains shown)
VH: EVQLVESGGGLVQPGGSLRLSCAASGYSISSGHYWNWIRQAPGKGLEWIGWINPNRGDTNYAQKFQGRVTISRDNSKNTLYLQLNSLRAEDTAVYYCARDYYGDFDYWGQGTLVTVSS
VL: DIQLTQSPSSLSASVGDRVTITCRASQSISSYLNWYQQKPGKAPKLLIYDASNLETGVPSRFSGSGSGTDFTLTISSLQPEDFATYYCQHHYGTPLTFGQGTKVEIKR

Kd [8]: 27.2 nM | Kd [1]: 27.2 nM | Kd [6]: 27.2 nM
B6: Hit ID 7040 (Fab, V domains shown)
VH: EVQLVESGGGLVQPGGSLRLSCAASGYSISSGYYWNWIRQAPGKGLEWIGWISPSGGSTNYAQKFQGRVTISRDNSKNTLYLQLNSLRAEDTAVYYCARDLTAGGFDYWGQGTLVTVSS
VL: B5 VL with S28G, N34A, H90Q, H91Y, G93S

Kd [11]: 14.8 nM | Kd [17]: 14.8 nM | Kd [18]: 14.8 nM
B7: Hit ID 7183 (Fab, V domains shown)
VH: EVQLVESGGGLVQPGGSLRLSCAASGYSISSGHYWNWIRQAPGKGLEWVSSISGYGDTTYYADSVKGRFTISRDNSKNTLYLQLNSLRAEDTAVYYCAREGSDTVLGDWFAYWGQGTLVTVSS
VL: B5 VL with L54R, E55A, V58I, H90Q, H91S, G93S, L96P

Kd [19]: 11.6 nM | Kd [20]: 11.6 nM
B8: Hit ID 5115 (Fab, V domains shown)
VH: EVQLVESGGGLVQPGGSLRLSCAASGYSISSGHYWGWIRQAPGKGLEWIGEIYHSGSTYYSPSLKSRVTISRDNSKNTLYLQLNSLRAEDTAVYYCARESYYAFDYWGQGTLVTVSS
VL: B5 VL with I29V, N34A, D50A, N53T, E55Q, T56S, H90Q, H91Y, G93T

Kd [11]: 24.3 nM | Kd [12]: 24.3 nM | Kd [13]: 24.3 nM
B9: Hit ID 7097 (Fab, V domains shown)
VH: B7 VH with Y34H, N36D, S51Y, Y55A, T104A
VL: B5 VL with S28G, N34A, H90Q, H91Y, G93S
